B1: Phosphoglycerate kinase, P00560 (parent)
chain: MSLSSKLSVQDLDLKDKRVFIRVDFNVPLDGKKITSNQRIVAALPTIKYVLEHHPRYVVLASHLGRPNGERNEKYSLAPVAKELQSLLGKDVTFLNDCVGPEVEAAVKASAPGSVILLENLRYHIEEEGSRKVDGQKVKASKEDVQKFRHELSSLADVYINDAFGTAHRAHSSMVGFDLPQRAAGFLLEKELKYFGKALENPTRPFLAILGGAKVADKIQLIDNLLDKVDSIIIGGGMAFTFKKVLENTEIGDSIFDKAGAEIVPKLMEKAKAKGVEVVLPVDFIIADAFSADANTKTVTDKEGIPAGWQGLDNGPESRKLFAATVAKAKTIVWNGPPGVFEFEKFAAGTKALLDEVVKSSAAGNTVIIGGGDTATVAKKYGVTDKISHVSTGGGASLELLEGKELPGVAFLSEKK

The variants in this data set derive from B1. The following applies: Saccharomyces cerevisiae (strain ATCC 204508 / S288c), pH 7.5, 25 °C, GdnHCl, Sodium phosphate 20 mM, structure 3PGK, whole UniProt chain shown.

Several values for one entry are separate records, joined by “and”; a condition that tells them apart may be missing. Equal entries are not always repeated.

Results on eight variants are retold here after FireProtDB (doi:10.1021/bi00042a027).

As to F195W, where the note is “CD, transition: 3”, the “ddG of mutation (higher = less stable)” value turned out to be 0.64 kcal/mol, the denaturant m value was 10.2 kcal/mol/M, the “denaturant midpoint (higher = more stable)” value (shortened to “denaturant midpoint”) stood at 0.53 M and the unfolding free energy was 5.44 kcal/mol. Besides, under “Fluorescence, transition: 3”, the “denaturant midpoint” value was 0.52 M and 0.91 M; the unfolding free energy is 6.3 kcal/mol and 2.68 kcal/mol.
Turning to Y123W, for the setting “CD”, the “ddG of mutation (higher = less stable)” value worked out at 1.29 kcal/mol, the denaturant m value was 13.7 kcal/mol/M, the “denaturant midpoint” value worked out at 0.42 M and the unfolding free energy was determined as 5.79 kcal/mol. Under “CD, transition: 3”, the “ddG of mutation (higher = less stable)” value came to 5.65 kcal/mol, the denaturant m value stood at 3.2 kcal/mol/M, the “denaturant midpoint” value is 0.86 M and the unfolding free energy was found to be 2.72 kcal/mol. Under “Fluorescence, transition: 3”, the “ddG of mutation (higher = less stable)” value is 0.57 kcal/mol and 0.91 kcal/mol; the “denaturant midpoint” value was 0.4 M and 0.91 M; the unfolding free energy was 4.81 kcal/mol and 3.45 kcal/mol.
Take Y49W: under “CD, transition: 3”, the “ddG of mutation (higher = less stable)” value was 1.77 kcal/mol and 4.83 kcal/mol; the “denaturant midpoint” value is 0.41 M and 1.06 M; the unfolding free energy was 4.31 kcal/mol and 3.54 kcal/mol. Where the note is “Fluorescence, transition: 3”, the “denaturant midpoint” value is 0.42 M and 0.92 M; the unfolding free energy is 5.31 kcal/mol and 3.8 kcal/mol.
Regarding W334Y, the “denaturant midpoint” value (CD, transition: 3) was 0.63 M and 0.82 M. Besides, under “Fluorescence”, the denaturant m value is 12.4 kcal/mol/M, the “denaturant midpoint” value was 0.62 M and the unfolding free energy worked out at 7.66 kcal/mol.
For Y49W W309Y, under “CD, transition: 3”, the “denaturant midpoint” value was 0.55 M and 0.96 M; the unfolding free energy was 5.93 kcal/mol and 2.34 kcal/mol. For the same variant, where the note is “Fluorescence”, the “ddG of mutation (higher = less stable)” value is -1.46 kcal/mol, the denaturant m value came to 12.7 kcal/mol/M, the “denaturant midpoint” value came to 0.54 M and the unfolding free energy is 6.84 kcal/mol. Besides, for the setting “Fluorescence, transition: 3”, the “ddG of mutation (higher = less stable)” value was -0.58 kcal/mol, the denaturant m value was 5.4 kcal/mol/M, the “denaturant midpoint” value was found to be 0.92 M and the unfolding free energy is 4.94 kcal/mol.
In the case of Y49W W334Y, under “CD, transition: 3”, the “denaturant midpoint” value is 0.51 M and 0.91 M; the unfolding free energy is 7.89 kcal/mol and 3.64 kcal/mol. In addition, under “Fluorescence, transition: 3”, the denaturant m value is 12.9 kcal/mol/M and 5 kcal/mol/M; the “denaturant midpoint” value is 0.53 M and 0.9 M; the unfolding free energy was 6.85 kcal/mol and 4.45 kcal/mol.
Turning to W309Y, for the setting “CD, transition: 3”, the denaturant m value was 10.9 kcal/mol/M and 5.8 kcal/mol/M; the “denaturant midpoint” value is 0.62 M and 0.84 M; the unfolding free energy was 6.85 kcal/mol and 4.87 kcal/mol. Also, under “Fluorescence”, the denaturant m value turned out to be 14.8 kcal/mol/M, the “denaturant midpoint” value was 0.64 M and the unfolding free energy amounted to 9.42 kcal/mol.
As to L400W, under “CD, transition: 3”, the “ddG of mutation (higher = less stable)” value is 2.68 kcal/mol and 3.31 kcal/mol; the denaturant m value was 8.1 kcal/mol/M and 5.3 kcal/mol/M; the “denaturant midpoint” value was 0.42 M and 0.95 M; the unfolding free energy is 3.4 kcal/mol and 5.06 kcal/mol. Besides, where the note is “Fluorescence”, the denaturant m value came out at 10.7 kcal/mol/M, the “denaturant midpoint” value was found to be 0.39 M and the unfolding free energy was 4.15 kcal/mol.
